Results from the supplement of paper PMC9170038.

System: MS2 coat protein
Assay: apparent KD of MS2 coat protein; designed switch direction (-1 OFF switch, 1 ON switch): 1; higher = weaker reporter binding
Method in brief: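 The buffer was Tris-HCl pH 7.5 with KCl, MgCl2, BSA, DTT, tRNA and Tween-20. In it, SNAP-549-labelled MS2 coat protein was titrated in doubling steps from 0.7 or 1.5 nM to 3 µM over chip-bound RNA switches transcribed by stalled E. coli RNA polymerase on Illumina chips. Apparent KD is the per-design median over clusters of curve fits to normalised fluorescence.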

[1] = input ligand: microRNA oligo, concentration not stated
[2] = Eterna round: R95, input ligand: FMN 200 uM
[3] = Eterna round: R95, input ligand: microRNA oligo, concentration not stated
[4] = Eterna round: R95, input ligand: none

Sequence | apparent KD of MS2 coat protein (input ligand: FMN 200 uM) | apparent KD of MS2 coat protein [1] | apparent KD of MS2 coat protein (input ligand: none) | apparent KD of MS2 coat protein [2] | apparent KD of MS2 coat protein [3] | apparent KD of MS2 coat protein [4]
GUUGAGAAAUGAGGAUAUGCAUGGAAGACACAUGAGGAUCACCCAUGUGGGAGGGAAACCAGGAGGUAGAAGGCAUUGGGAAAC [AK SSNG2-V2-24] (Eterna round: R96, puzzle: Same State NG 2) | 35.7 nM | 35.5 nM | 55.1 nM | – | – | –
GUUUUUAGUGCAGGAUAUGAUCAACAUGAGGAUCACCCAUGUGGCGUUGUGAGUAGGGAGAGAGAUCAGAAGGGCGUCUCCGCG [SS-NG2-LRO13] (Eterna round: R96, puzzle: Same State NG 2) | 51.5 nM | 37 nM | 57.3 nM | – | – | –
UAAAAACAUGAGGAUCACCCAUGUCAAAAGACAUGAGGAUAUGUACAGACUUCGGUCUGUACAGAAGGCAUGAAAA [salish99_ss1_r3_094] (puzzle: Same State 1) | – | – | – | 33.3 nM | 503 nM | 362 nM
UAAACUUCUUUUAGUGUGUUGCGAGUGAAACAUGAGGAUCACCCAUGUAAAGGAUUGUGGUAUUUUGUUCGUCUUAA [JR_SHM208A_Sub075] (puzzle: Sensor for hsa-mir-208a) | – | – | – | 75.2 nM | 41.4 nM | 98.8 nM
UAAGAACAUGAGGAUCACCCAUGUGGAAAGAACACAGGAUAUCAUAGAAGGACGCGACUAUGAGAAGGGUGACACG [Lequat] (puzzle: Same State 1) | – | – | – | 390 nM | 104 nM | 218 nM
UAAUAAAAGGAUAUACAUGAGGAUCACCCAUGUCCGUCUGCCAAGGAUAUCUAGGAUCAAGCAGCAGAGAAGGUGGCACGCCAC [Eternabot solution 35] (Eterna round: R96, puzzle: Same State NG 3) | 22.3 nM | 17.2 nM | 18.3 nM | – | – | –
UAGAUUCACGUAGGAUAUCGACCUACAUGAGGAUCACCCAUGUUUUUGAAUAGAUUUUUUUGUUACGAGAAGGACGUUAUGUAU [JR_SSNG2_Sub064] (Eterna round: R96, puzzle: Same State NG 2) | 133 nM | 177 nM | 268 nM | – | – | –
UAGCAGUGCGGGUAGGAUAUGUAGGGUGGUACAUGAGGAUCACCCAUGUAUCCACCCUUCGACCGGCAGAAGGGCCUGUCACUGC [Edor] (Eterna round: R96, puzzle: Same State 2) | – | 13.2 nM | – | – | – | –
UAGUGAUUGCAAGGAUAUGCUUAUGUUUAAUUUUUUUUAAUAUCUAACAUGAGGAUCACCCAUGUGCAGAAGGUGCUUGAUUUG [JR_SSNG2_Sub075] (Eterna round: R96, puzzle: Same State NG 2) | – | 54.2 nM | – | – | – | –
UAUAAACAUGAGGAUCACCCAUGUAAUAAUAUGGGAGGAUAUCAGAAUGUAUUUAUGUAAUGAGAAGGCCUAAUAU [Mat - Same State 1 - Mod of Eli - D69] (puzzle: Same State 1) | – | – | – | 50.9 nM | 122 nM | 372 nM
UAUCCAUAGAUAGGAUAUCAGUAUACAUGAGGAUCACCCAUGUUAUAUUUGGUUUUAAUUUAGUCUGAGAAGGAUCUUGAUGAA [SameState NG2 #2] (Eterna round: R96, puzzle: Same State NG 2) | 14.7 nM | 11.9 nM | 15.3 nM | – | – | –
UAUCUCAUGUAAGGAUAUGCAGCCGUUUCGGCUGCAGAAGGUACUAUAAUACAUGAGGAUCACCCAUGUCUCUCGCAUUGCGAG [JL SSNG1 1.49] (Eterna round: R96, puzzle: Same State NG 1) | 186 nM | 150 nM | 293 nM | – | – | –
UAUUAGAUCCGAGGAUAUCCUUAUUAGAAACAUGAGGAUCACCCAUGUAAAGGGAAUUAUUUGUAGGAGAAGGCGGAUUUAGUU [JR_SSNG2_Sub056] (Eterna round: R96, puzzle: Same State NG 2) | – | 41.7 nM | – | – | – | –
UAUUAGAUCCGAGGAUAUCCUUUUUUCUUACAUGAGGAUCACCCAUGUAAAGGGAUUGAGUUGUAGGAGAAGGCGGAUUUAGUU [JR_SSNG2_Sub058] (Eterna round: R96, puzzle: Same State NG 2) | – | 24.1 nM | – | – | – | –
UCGUCCUCGUGCUAGGAUAUCCAUCGUAAAACAUGAGGAUCACCCAUGUAGAAAUGCGCCUACGAGGAGAAGGAGCGAUGUGGAU [Velemageer] (Eterna round: R96, puzzle: Same State 2) | – | 14 nM | – | – | – | –
UCUAGACAUGAGGAUCACCCAUGUCGAUAUGGCGCAGGAUAUCGGUACUCAUAGAGUACGCGAGAAGGGUGACUUC [Same State 1 - Mod of Vinnie Gere v.2] (puzzle: Same State 1) | – | – | – | – | 173 nM | –
UCUUGGUUUUUGCUCGUUUUUUGUGUUGAACAUGAGGAUCACCCAUGUAUUAUACGGUCCGGUUUAGUAGUGGUCCA [JMF 78] (puzzle: Sensor for hsa-mir-208a) | – | – | – | 86.1 nM | 83 nM | 113 nM
UCUUGGUUUUUGCUCGUUUUUUGUGUUGAACAUGAGGAUCACCCAUGUAUUGUACAGUCCAAUUUAAUAAUGGUCCA [JMF 4] (puzzle: Sensor for hsa-mir-208a) | – | – | – | 34.2 nM | 27.9 nM | 41.6 nM
UCUUGGUUUUUGCUCGUUUUUUGUGUUGAACAUGAGGAUCACCCAUGUAUUGUACGGUCCAAUUUAAUAGUGGUCCG [JMF 24] (puzzle: Sensor for hsa-mir-208a) | – | – | – | 25.5 nM | 15.3 nM | 28 nM
UCUUGGUUUUUGCUCGUUUUUUGUGUUGAACAUGAGGAUCACCCAUGUAUUGUACGGUCCGAUUUAAUAGUGGUCCG [JMF 19] (puzzle: Sensor for hsa-mir-208a) | – | – | – | 24.4 nM | 14.8 nM | 27 nM
UCUUGGUUUUUGCUCGUUUUUUGUGUUGAACAUGAGGAUCACCCAUGUAUUGUACGGUCCGGUUUGAUAGUGGUCCG [JMF 15] (puzzle: Sensor for hsa-mir-208a) | – | – | – | 26.3 nM | 16.2 nM | 31.3 nM
UGAACCGUCACAGGAUAUCAUGCGAAAAUUGCGUGAGAAGGGUGGAUGUUGUGUUCAAAGAUGUACAUGAGGAUCACCCAUGUU [SameState NG1 #47] (Eterna round: R96, puzzle: Same State NG 1) | 61 nM | 85.7 nM | 170 nM | – | – | –
UGAACCGUCACAGGAUAUCAUGCGAAAAUUGCGUGAGAAGGGUGGAUGUUGUGUUCAAAGUUAUACAUGAGGAUCACCCAUGUU [SameState NG1 #46] (Eterna round: R96, puzzle: Same State NG 1) | 29.8 nM | 45.8 nM | 65.5 nM | – | – | –
UGAAUAGUCACAGGAUAUCAUGCGAAAAUUGCGUGAGAAGGGUGGAUGUUGUGCUCAAAGUGCUACAUGAGGAUCACCCAUGUU [SameState NG1 #42] (Eterna round: R96, puzzle: Same State NG 1) | 337 nM | 234 nM | 187 nM | – | – | –
UGAAUAGUUACAGGAUAUCAUGCGAAAAUUGCGUGAGAAGGGUGGGUGUUGUGCGCAAAGUGCUACAUGAGGAUCACCCAUGUU [SameState NG1 #39] (Eterna round: R96, puzzle: Same State NG 1) | 278 nM | 23.1 nM | 277 nM | – | – | –
UGAAUGAUGAUAGGAUAUACAUGAGGAAUCCUCGUAGAAGGAUCAUGACAUGAGGAUCACCCAUGUAGCGCUCCGUAGAGCGCA [JL SSNG1 1.20] (Eterna round: R96, puzzle: Same State NG 1) | 561 nM | 30.7 nM | 151 nM | – | – | –
UGACACACGGCAGGAUAUCGAUAGCAAAGCUAUCGAGAAGGGCCUCAUGUCGUGGAAACGUGACAUGAGGAUCACCCAUGUCGC [Omei SS(NG)1 Cv12] (Eterna round: R96, puzzle: Same State NG 1) | 72 nM | 12.6 nM | 26.6 nM | – | – | –
UGACACACGGCAGGAUAUCGAUUCCAAAGGAAUCGAGAAGGGCCUCAUGUCGUGGAAACGUGACAUGAGGAUCACCCAUGUCGC [Omei SS(NG)1 Cv16] (Eterna round: R96, puzzle: Same State NG 1) | 65 nM | 3.72 nM | 64.2 nM | – | – | –
UGCUAGUGGGUAGGAUAUUUAGGAUAUGGGAAAGACUAAGUCUGUAGGUCACCUAACCCAGAAGGAGAGAAGGACCCUUCAGCU [pwkr ssNG2 2FMN + F9.28] (Eterna round: R96, puzzle: Same State NG 2) | 1660 nM | 13.9 nM | 38.9 nM | – | – | –
